Data taken from paper PMC7870652, “Single-molecule force spectroscopy reveals the dynamic strength of the hair-cell tip-link connection” (Nature Communications, 2021).

Experiments:
[1] = target: T1, dimeric full-ectodomain CDH23 fusion protein (mouse, UniProt Q99PF4 24-3064, SNAPtag coupled to a benzylguanine DNA tether or BG-Biotin (force spectroscopy), or to a benzylguanine-PEG15-biotin linker (biolayer interferometry)); test: BLI; CDH23 biotinylated on its SNAPtag and immobilised on streptavidin-coated PEG-biotin aminopropylsilane sensors; 10–300 nM PCDH15 in solution; TBS-Tween + Ca^2+ buffer, 2 mM Ca^2+; traces of a drift sensor and of PCDH15 lacking EC1-2 subtracted; dissociation fitted with a single exponential; on-rates measured at 300 nM PCDH15 (effective on-rate); Octet Red384; settings: both partners purified
T1 construct: cadherin-23, mouse, the entire extracellular domain up to the last hydrophilic amino acid before the transmembrane domain (27 EC domains); The two halves carry opposing Fc heterodimerisation domains and the same cadherin ectodomain; also called full-length dimer; CDH23 dimer; source: HEK Expi293 cells, co-transfected, secreted; purified (Ni-NTA or TALON, size-exclusion on Superose 6 Increase)

[2] = target: T2, single-bond CDH23 fusion protein (EC1-5/EC3-5 Fc heterodimer with one EC1-2 binding domain) (mouse, SNAPtag coupled to a benzylguanine DNA tether); test: single-molecule force spectroscopy (dual-beam optical tweezers); each protein held on a streptavidin-coated silica bead through a DNA tether on its SNAPtag (R113G proteins and fast loading rates: biotinylated directly with BG-Biotin); room temperature, TBS-TB + Ca^2+ buffer (20 mM Tris, 125 mM NaCl, pH 7.4, 0.02% Tween-20, blocking reagent), 2 mM Ca^2+; loading rates 0.39-377.8 pN s^−1; constants from fits of the …; settings: both partners purified
T2 construct: signal peptide in the construct (native; its cleavage on secretion was confirmed); cadherin-23, mouse, EC1-5; signal peptide in the construct (native, preserved by the deletion); cadherin-23, mouse, the EC1-5 construct (base pairs 408-2066 of NM_023370) from which amino acids 25-228 (EC1-2) were deleted, leaving EC3-5; 408-2066 is 1659 bp (553 codons), probably residues 1-553 of the precursor; …

T1 sequence (Q99PF4 24-3064): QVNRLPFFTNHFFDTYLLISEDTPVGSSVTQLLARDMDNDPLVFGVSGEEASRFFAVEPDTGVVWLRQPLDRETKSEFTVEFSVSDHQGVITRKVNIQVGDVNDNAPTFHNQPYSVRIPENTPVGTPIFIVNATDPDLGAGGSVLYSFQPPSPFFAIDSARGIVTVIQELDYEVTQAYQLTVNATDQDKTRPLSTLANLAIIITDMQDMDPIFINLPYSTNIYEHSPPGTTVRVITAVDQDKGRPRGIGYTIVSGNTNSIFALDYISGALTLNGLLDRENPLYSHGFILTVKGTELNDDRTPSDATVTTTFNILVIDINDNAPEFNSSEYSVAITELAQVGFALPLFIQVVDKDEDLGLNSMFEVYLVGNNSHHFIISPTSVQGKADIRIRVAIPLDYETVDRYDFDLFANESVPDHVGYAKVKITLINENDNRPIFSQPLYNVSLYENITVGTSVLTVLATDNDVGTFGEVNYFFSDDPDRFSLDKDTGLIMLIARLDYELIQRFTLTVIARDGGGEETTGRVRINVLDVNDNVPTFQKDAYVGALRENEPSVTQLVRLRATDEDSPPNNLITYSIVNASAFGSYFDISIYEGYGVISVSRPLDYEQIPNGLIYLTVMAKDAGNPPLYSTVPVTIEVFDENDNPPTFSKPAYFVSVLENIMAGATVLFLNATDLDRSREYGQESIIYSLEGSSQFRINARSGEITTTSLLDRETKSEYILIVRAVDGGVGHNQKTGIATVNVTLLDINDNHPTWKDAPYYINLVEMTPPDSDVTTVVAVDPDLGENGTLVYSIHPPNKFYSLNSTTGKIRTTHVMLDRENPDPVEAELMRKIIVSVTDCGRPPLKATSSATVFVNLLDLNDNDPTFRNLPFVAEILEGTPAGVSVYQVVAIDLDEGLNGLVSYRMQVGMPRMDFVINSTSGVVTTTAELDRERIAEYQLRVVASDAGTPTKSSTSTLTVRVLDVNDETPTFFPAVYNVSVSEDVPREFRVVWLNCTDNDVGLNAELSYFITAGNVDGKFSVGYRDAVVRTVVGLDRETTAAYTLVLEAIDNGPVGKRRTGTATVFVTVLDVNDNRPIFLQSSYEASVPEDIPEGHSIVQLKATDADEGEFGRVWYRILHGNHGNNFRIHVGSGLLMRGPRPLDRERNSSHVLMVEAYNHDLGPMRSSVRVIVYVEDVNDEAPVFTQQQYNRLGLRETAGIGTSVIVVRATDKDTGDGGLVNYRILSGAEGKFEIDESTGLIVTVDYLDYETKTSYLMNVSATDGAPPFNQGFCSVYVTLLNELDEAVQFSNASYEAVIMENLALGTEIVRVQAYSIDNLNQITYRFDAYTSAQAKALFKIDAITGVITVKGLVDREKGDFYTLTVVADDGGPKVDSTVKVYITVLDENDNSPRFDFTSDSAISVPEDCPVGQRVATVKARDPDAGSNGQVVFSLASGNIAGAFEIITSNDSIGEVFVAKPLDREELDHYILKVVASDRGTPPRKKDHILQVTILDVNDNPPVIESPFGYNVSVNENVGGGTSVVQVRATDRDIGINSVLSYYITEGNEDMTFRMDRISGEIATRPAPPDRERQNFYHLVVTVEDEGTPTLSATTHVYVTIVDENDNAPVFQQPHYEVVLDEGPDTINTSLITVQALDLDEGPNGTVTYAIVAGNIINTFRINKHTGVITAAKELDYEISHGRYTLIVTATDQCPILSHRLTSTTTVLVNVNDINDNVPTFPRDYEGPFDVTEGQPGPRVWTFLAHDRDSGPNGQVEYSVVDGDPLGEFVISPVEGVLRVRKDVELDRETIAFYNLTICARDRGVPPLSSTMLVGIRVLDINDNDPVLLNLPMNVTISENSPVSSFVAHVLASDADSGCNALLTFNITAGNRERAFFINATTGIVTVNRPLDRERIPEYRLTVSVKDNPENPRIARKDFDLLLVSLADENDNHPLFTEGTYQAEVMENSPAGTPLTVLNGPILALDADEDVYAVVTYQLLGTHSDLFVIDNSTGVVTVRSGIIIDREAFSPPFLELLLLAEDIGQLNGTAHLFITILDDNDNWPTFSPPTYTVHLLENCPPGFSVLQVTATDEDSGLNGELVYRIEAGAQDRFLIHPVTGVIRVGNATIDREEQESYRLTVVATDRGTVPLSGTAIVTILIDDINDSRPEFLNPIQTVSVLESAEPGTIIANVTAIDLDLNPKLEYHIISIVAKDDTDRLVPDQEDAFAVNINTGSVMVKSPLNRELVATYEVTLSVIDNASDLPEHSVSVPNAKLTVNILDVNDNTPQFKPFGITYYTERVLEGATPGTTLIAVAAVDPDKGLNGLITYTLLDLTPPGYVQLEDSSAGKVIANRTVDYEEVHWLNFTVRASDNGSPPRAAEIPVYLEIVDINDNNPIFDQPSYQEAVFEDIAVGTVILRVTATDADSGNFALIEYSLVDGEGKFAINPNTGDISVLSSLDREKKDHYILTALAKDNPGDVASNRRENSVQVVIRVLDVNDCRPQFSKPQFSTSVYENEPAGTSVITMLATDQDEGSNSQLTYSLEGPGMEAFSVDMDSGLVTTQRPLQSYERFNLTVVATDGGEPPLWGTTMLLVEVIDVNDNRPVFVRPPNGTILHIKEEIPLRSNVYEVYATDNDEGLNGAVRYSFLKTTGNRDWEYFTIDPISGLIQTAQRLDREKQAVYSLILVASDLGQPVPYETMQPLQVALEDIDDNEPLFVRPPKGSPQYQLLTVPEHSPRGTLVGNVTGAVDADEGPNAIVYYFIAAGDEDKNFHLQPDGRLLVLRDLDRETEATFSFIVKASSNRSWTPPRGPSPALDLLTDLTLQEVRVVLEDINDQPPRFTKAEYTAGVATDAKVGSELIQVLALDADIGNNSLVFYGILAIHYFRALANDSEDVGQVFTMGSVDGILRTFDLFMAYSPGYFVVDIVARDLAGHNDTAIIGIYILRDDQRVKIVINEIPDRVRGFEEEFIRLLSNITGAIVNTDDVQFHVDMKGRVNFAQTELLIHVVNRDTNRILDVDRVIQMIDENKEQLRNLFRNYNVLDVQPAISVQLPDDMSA

B1: dimeric full-ectodomain PCDH15 fusion protein (Fc fusion)
chain: not shown
modifications: SNAPtag coupled to a benzylguanine DNA tether, or to BG-Biotin in some force-spectroscopy conditions
notes: protocadherin-15, mouse, the entire extracellular domain up to the last hydrophilic amino acid before the transmembrane domain (11 EC domains); The two halves carry opposing Fc heterodimerisation domains and the same cadherin ectodomain; also called full-length dimer; full-ectodomain mouse PCDH15; source: HEK Expi293 cells, co-transfected, secreted; purified (Ni-NTA or TALON, size-exclusion on …)
- kon [1]: 350000 M⁻¹ s⁻¹

B2: dimeric full-ectodomain PCDH15 R113G^+/+ fusion protein (both strands mutated) (Fc fusion)
chain: not shown
modifications: SNAPtag coupled to BG-Biotin (force spectroscopy without the DNA tether)
notes: A human hereditary deafness mutation put into the mouse protein by site-directed mutagenesis; also called homozygous R113G^+/+; source: HEK Expi293 cells, co-transfected, secreted; purified (Ni-NTA or TALON, size-exclusion on Superose 6 Increase)
- mean lifetime of the connection at zero force [1]: 37 s

B3: single-bond PCDH15 fusion protein (EC1-5/EC3-5 Fc heterodimer with one EC1-2 binding domain) (Fc fusion)
chain 1: not shown
chain 2: QGDDLGPMFLPCVLVPNTRDCRPLTYQAAIPELRTPEELNPILVTPPIQAIDQDRNIQPPSDRPGILYSILVGTPEDYPRFFHMHPRTAELTLLEPVNRDFHQKFDLVIKAEQDNGHPLPAFASLHIEILDENNQSPYFTMPSYQGYILESAPVGATISESLNLTTPLRIVALDKDIEDTKDPELHLFLNDYTSVFTVTPTGITRYLTLLQPVDREEQQTYTFLITAFDGVQESEPVVVNIRVMDANDNTPTFPEISYDVYVYTDMSPGDSVIQLTAVDADEGSNGEISYEILVGGKGDFVINKTTGLVSIAPGVELIVGQTYALTVQASDNAPPAERRHSICTVYIEVLPPNNQ
modifications: SNAPtag coupled to a benzylguanine DNA tether
- koff [2]: 0.5 ± 0.1 s⁻¹
